This note sets out measurements from US20080199467A1 (published 2008).

Holding throughout (assay): saturation binding ELISA (immobilized ligand)
On the technique in general: An ELISA detects its analyte on a solid surface through an enzyme-linked reagent.

One assay has as its target CML.
In another assay the target is T1, amphoterin (UniProt P09429 1-215).
T1 chain: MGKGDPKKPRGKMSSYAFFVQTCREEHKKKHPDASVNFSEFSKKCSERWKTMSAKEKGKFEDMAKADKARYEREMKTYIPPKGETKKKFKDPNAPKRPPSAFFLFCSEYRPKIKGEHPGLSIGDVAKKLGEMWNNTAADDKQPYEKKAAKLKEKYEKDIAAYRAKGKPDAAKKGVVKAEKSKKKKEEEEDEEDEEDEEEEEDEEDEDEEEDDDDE

For the next assay, the target named is T2, S100b (UniProt P04271 2-92).
T2 chain: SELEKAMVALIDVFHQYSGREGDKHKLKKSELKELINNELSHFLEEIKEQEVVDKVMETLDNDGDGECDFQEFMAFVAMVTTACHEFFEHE

B1: TTP4000 (Fc fusion)
chain: QNITARIGEPLVLKCKGAPKKPPQRLEWKLNTGRTEAWKVLSPQGGGPWDSVARVLPNGSLFLPAVGIQDEGIFRCQAMNRNGKETKSNYRVRVYQIPGKPEIVDSASELTAGVPNKVGTCVSEGSYPAGTLSWHLDGKPLVPNEKGVSVKEQTRRHPETGLFTLQSELMVTPARGGDPRPTFSCSFSPGLPRHRALRTAPIQPRVWEPVPLEEVQLVVEPEGGAVAPPSVFLFPPKPKDTLMISRTPEVTCVVVDVSHEDPEVKFNWYVDGVEVHNAKTKPREEQYNSTYRVVSVLTVLHQDWLNGKEYKCKVSNKALPAPIEKTISKAKGQPREPQVYTLPPSRDELTKNQVSLTCLVKGFYPSDIAVEWESNGQPENNYKTTPPVLDSDGSFFLYSKLTVDKSRWQQGNVFSCSVMHEALHNHYTQKSLSLSPGK
modifications: N-terminal residue glutamine (Q) or pyroglutamic acid (pE) or a mixture thereof; glycosylation sites at N2 and N288 (numbering of the processed protein); C-terminal residue may be cleaved off
B1: in the assay with CML, the Kd turned out to be 75 nM.

B2: RAGE fusion protein TTP-4000 (Fc fusion)
chain: QNITARIGEPLVLKCKGAPKKPPQRLEWKLNTGRTEAWKVLSPQGGGPWDSVARVLPNGSLFLPAVGIQDEGIFRCQAMNRNGKETKSNYRVRVYQIPGKPEIVDSASELTAGVPNKVGTCVSEGSYPAGTLSWHLDGKPLVPNEKGVSVKEQTRRHPETGLFTLQSELMVTPARGGDPRPTFSCSFSPGLPRHRALRTAPIQPRVWEPVPLEEVQLVVEPEGGAVAPPSVFLFPPKPKDTLMISRTPEVTCVVVDVSHEDPEVKFNWYVDGVEVHNAKTKPREEQYNSTYRVVSVLTVLHQDWLNGKEYKCKVSNKALPAPIEKTISKAKGQPREPQVYTLPPSRDELTKNQVSLTCLVKGFYPSDIAVEWESNGQPENNYKTTPPVLDSDGSFFLYSKLTVDKSRWQQGNVFSCSVMHEALHNHYTQKSLSLSPGK
modifications: N-terminal residue glutamine (Q) or pyroglutamic acid (pE) or a mixture thereof; glycosylation sites at N2 and N288 (numbering of the processed protein); C-terminal residue may be cleaved off
Turning to B2, the Kd in the assay with amphoterin turned out to be 40 nM; in the assay with S100b, 77 nM.

As usually defined, the Kd is the free concentration of one partner at which half of the binding sites on the other are occupied at equilibrium, for simple one-to-one binding.
